Experimental data from paper PMC11162810, “Functional redundancy in tRNA dihydrouridylation” (Nucleic Acids Research, 2024).

T1: BsDusB2 (Bacillus subtilis, UniProt O31546)
T1 construct: gene dus2; monomer about 39 kDa; synthetic gene (Eurofins)
T1 sequence (O31546 1-325): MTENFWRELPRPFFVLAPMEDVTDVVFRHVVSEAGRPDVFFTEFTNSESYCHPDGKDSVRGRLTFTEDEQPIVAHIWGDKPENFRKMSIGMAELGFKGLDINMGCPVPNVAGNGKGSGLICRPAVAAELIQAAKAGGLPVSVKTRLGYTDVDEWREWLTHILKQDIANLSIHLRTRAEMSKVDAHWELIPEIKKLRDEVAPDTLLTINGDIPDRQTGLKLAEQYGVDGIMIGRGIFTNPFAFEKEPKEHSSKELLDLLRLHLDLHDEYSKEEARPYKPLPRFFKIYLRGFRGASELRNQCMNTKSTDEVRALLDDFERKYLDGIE

T2: BsDusB1 (Bacillus subtilis, UniProt P37567)
T2 construct: gene dus1; monomer about 40 kDa; synthetic gene (Eurofins)
T2 sequence (P37567 1-333): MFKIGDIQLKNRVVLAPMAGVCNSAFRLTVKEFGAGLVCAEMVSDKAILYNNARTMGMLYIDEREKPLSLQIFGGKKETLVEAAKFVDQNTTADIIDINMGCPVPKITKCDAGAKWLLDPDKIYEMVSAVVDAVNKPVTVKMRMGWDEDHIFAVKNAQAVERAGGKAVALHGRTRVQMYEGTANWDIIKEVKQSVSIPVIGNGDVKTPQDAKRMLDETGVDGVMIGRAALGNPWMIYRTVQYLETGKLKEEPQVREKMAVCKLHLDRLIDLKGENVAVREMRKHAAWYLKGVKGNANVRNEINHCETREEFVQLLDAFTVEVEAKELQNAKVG


What was measured:
BsDusB2 = target: T1, BsDusB2; assay: copurified flavin, UV-visible absorption and fluorescence, SDS release; assay type: binding; details: non-covalent
BsDusB1 = target: T2, BsDusB1; assay: as above; assay type: binding; details: non-covalent
purified protein [1] = substrate: NC(=O)C1=CN([C@@H]2O[C@H](COP(=O)(O)OP(=O)(O)OC[C@H]3O[C@@H](n4cnc5c(N)ncnc54)[C@H](OP(=O)(O)O)[C@@H]3O)[C@@H](O)[C@H]2O)C=CC1; assay: purified protein; assay type: biochemical, Bacillus subtilis; details: aerobic (NAD(P)H oxidase, no tRNA mentioned)
purified protein [2] = substrate: NC(=O)C1=CN([C@@H]2O[C@H](COP(=O)(O)OP(=O)(O)OC[C@H]3O[C@@H](n4cnc5c(N)ncnc54)[C@H](O)[C@@H]3O)[C@@H](O)[C@H]2O)C=CC1; assay: purified protein; assay type: biochemical, Bacillus subtilis; details: aerobic (NAD(P)H oxidase, no tRNA mentioned)

Row | Molecule | copurified flavin, UV-visible absorption and fluorescence, SDS release (BsDusB2) | copurified flavin, UV-visible absorption and fluorescence, SDS release (BsDusB1) | Km (purified protein [1]) [µM] | kcat (purified protein [1]) [s⁻¹] | kcat/Km (purified protein [1]) [M⁻¹ s⁻¹] | Km (purified protein [2]; kcat error missing in the table) [µM] | Km (purified protein [2]) [µM] | kcat (purified protein [2]) [s⁻¹] | kcat/Km (purified protein [2]) [M⁻¹ s⁻¹]
1 | Cc1cc2nc3c(=O)[nH]c(=O)nc-3n(C[C@H](O)[C@H](O)[C@H](O)COP(=O)(O)O)c2cc1C [FMN] | both BsDusB enzymes are flavoproteins with the FMN non-covalently bound to the apoprotein | both BsDusB enzymes are flavoproteins with the FMN non-covalently bound to the apoprotein |  |  |  |  |  |  | 
2 | BsDusB2 (Bacillus subtilis subsp. subtilis str. 168) (protein, monomer about 39 kDa; synthetic gene (Eurofins)) MTENFWRELPRPFFVLAPMEDVTDVVFRHVVSEAGRPDVFFTEFTNSESYCHPDGKDSVRGRLTFTEDEQPIVAHIWGDKPENFRKMSIGMAELGFKGLDINMGCPVPNVAGNGKGSGLICRPAVAAELIQAAKAGGLPVSVKTRLGYTDVDEWREWLTHILKQDIANLSIHLRTRAEMSKVDAHWELIPEIKKLRDEVAPDTLLTINGDIPDRQTGLKLAEQYGVDGIMIGRGIFTNPFAFEKEPKEHSSKELLDLLRLHLDLHDEYSKEEARPYKPLPRFFKIYLRGFRGASELRNQCMNTKSTDEVRALLDDFERKYLDGIE |  |  | 2.1 ± 0.2 | 0.7 ± 0.1 | 300000 | 22 ± 4 |  |  | 
3 | BsDusB1 (Bacillus subtilis subsp. subtilis str. 168) (protein, monomer about 40 kDa; synthetic gene (Eurofins)) MFKIGDIQLKNRVVLAPMAGVCNSAFRLTVKEFGAGLVCAEMVSDKAILYNNARTMGMLYIDEREKPLSLQIFGGKKETLVEAAKFVDQNTTADIIDINMGCPVPKITKCDAGAKWLLDPDKIYEMVSAVVDAVNKPVTVKMRMGWDEDHIFAVKNAQAVERAGGKAVALHGRTRVQMYEGTANWDIIKEVKQSVSIPVIGNGDVKTPQDAKRMLDETGVDGVMIGRAALGNPWMIYRTVQYLETGKLKEEPQVREKMAVCKLHLDRLIDLKGENVAVREMRKHAAWYLKGVKGNANVRNEINHCETREEFVQLLDAFTVEVEAKELQNAKVG |  |  | 18 ± 3 | 0.013 ± 0.002 | 700 |  | 21 ± 4 | 0.013 ± 0.0014 | 600
